According to patent US20200079833A1 (AstraZeneca / MedImmune, published 2020):
Starred links: 1 amine or outer side, 2 acyl side, 3 side chain; linkers in the order of their positions; H or OH if unused. Non-standard residues stand in square brackets, D forms with d. Groups on a side chain read outwards from the residue. Primed or numbered codes have the meaning given here. No end group written: not given here. *: point of attachment. Dodecanoyl(12-OPh(4-COOH)) = O=C(O)c1ccc(OCCCCCCCCCCCC(=O)*)cc1; γGlu = O=C(O)[C@H](CCC(=O)[*:2])N[*:1]; Stearoyl = CCCCCCCCCCCCCCCCCC(=O)*; αMeF = C[C@](N)(Cc1ccccc1)C(=O)O; αMeK = C[C@](N)(CCCCN)C(=O)O; αMeS = C[C@](N)(CO)C(=O)O; PEG2′ = not defined here; Aib = CC(C)(N)C(=O)O; Ahx = NCCCCCC(=O)O

T1: glucose-dependent insulinotropic peptide (gastric inhibitory polypeptide) receptor (GIPR) (human, UniProt P48546 22-466)
T1 sequence (looked up): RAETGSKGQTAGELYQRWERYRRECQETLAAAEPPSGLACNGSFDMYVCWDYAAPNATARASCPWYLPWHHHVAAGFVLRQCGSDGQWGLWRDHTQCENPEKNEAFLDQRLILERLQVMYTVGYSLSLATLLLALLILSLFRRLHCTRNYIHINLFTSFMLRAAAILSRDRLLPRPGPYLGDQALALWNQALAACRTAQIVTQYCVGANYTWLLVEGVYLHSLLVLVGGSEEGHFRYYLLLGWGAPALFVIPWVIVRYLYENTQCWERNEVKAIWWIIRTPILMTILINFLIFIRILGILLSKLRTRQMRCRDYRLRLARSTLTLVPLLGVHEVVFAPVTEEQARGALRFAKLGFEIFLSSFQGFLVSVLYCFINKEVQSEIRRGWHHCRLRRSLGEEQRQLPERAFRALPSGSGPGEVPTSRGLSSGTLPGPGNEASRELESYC

T2: glucose-dependent insulinotropic peptide (gastric inhibitory polypeptide) receptor (human, UniProt P48546 22-466)
T2 sequence (looked up): T1 sequence (looked up)

B1: SEQ ID NO 141 (peptide)
peptide: H[Aib]EGS[αMeF]TSDV[αMeS]S[αMeF]LEGEAAK([Ahx-Ahx-Dodecanoyl(12-OPh(4-COOH))])E[αMeF]IA[αMeF]VV[αMeK]GG-NH2
modifications: N-terminus assumed
SMILES: CC[C@H](C)[C@H](NC(=O)[C@](C)(Cc1ccccc1)NC(=O)[C@H](CCC(=O)O)NC(=O)[C@H](CCCCNC(=O)CCCCCNC(=O)CCCCCNC(=O)CCCCCCCCCCCOc1ccc(C(=O)O)cc1)NC(=O)[C@H](C)NC(=O)[C@H](C)NC(=O)[C@H](CCC(=O)O)NC(=O)CNC(=O)[C@H](CCC(=O)O)NC(=O)[C@H](CC(C)C)NC(=O)[C@](C)(Cc1ccccc1)NC(=O)[C@H](CO)NC(=O)[C@](C)(CO)NC(=O)[C@@H](NC(=O)[C@H](CC(=O)O)NC(=O)[C@H](CO)NC(=O)[C@@H](NC(=O)[C@](C)(Cc1ccccc1)NC(=O)[C@H](CO)NC(=O)CNC(=O)[C@H](CCC(=O)O)NC(=O)C(C)(C)NC(=O)[C@@H](N)Cc1c[nH]cn1)[C@@H](C)O)C(C)C)C(=O)N[C@@H](C)C(=O)N[C@@](C)(Cc1ccccc1)C(=O)N[C@H](C(=O)N[C@H](C(=O)N[C@@](C)(CCCCN)C(=O)NCC(=O)NCC(N)=O)C(C)C)C(C)C
B2: SEQ ID NO 142 (peptide)
peptide: H[Aib]EGS[αMeF]TSDV[αMeS]S[αMeF]LEGEAAK([Ahx-Ahx-Ahx-Dodecanoyl(12-OPh(4-COOH))])E[αMeF]IA[αMeF]VV[αMeK]GG-NH2
modifications: N-terminus assumed
SMILES: CC[C@H](C)[C@H](NC(=O)[C@](C)(Cc1ccccc1)NC(=O)[C@H](CCC(=O)O)NC(=O)[C@H](CCCCNC(=O)CCCCCNC(=O)CCCCCNC(=O)CCCCCNC(=O)CCCCCCCCCCCOc1ccc(C(=O)O)cc1)NC(=O)[C@H](C)NC(=O)[C@H](C)NC(=O)[C@H](CCC(=O)O)NC(=O)CNC(=O)[C@H](CCC(=O)O)NC(=O)[C@H](CC(C)C)NC(=O)[C@](C)(Cc1ccccc1)NC(=O)[C@H](CO)NC(=O)[C@](C)(CO)NC(=O)[C@@H](NC(=O)[C@H](CC(=O)O)NC(=O)[C@H](CO)NC(=O)[C@@H](NC(=O)[C@](C)(Cc1ccccc1)NC(=O)[C@H](CO)NC(=O)CNC(=O)[C@H](CCC(=O)O)NC(=O)C(C)(C)NC(=O)[C@@H](N)Cc1c[nH]cn1)[C@@H](C)O)C(C)C)C(=O)N[C@@H](C)C(=O)N[C@@](C)(Cc1ccccc1)C(=O)N[C@H](C(=O)N[C@H](C(=O)N[C@@](C)(CCCCN)C(=O)NCC(=O)NCC(N)=O)C(C)C)C(C)C
B3: SEQ ID NO 18 (peptide)
peptide: H[Aib]EGS[αMeF]T[αMeS]DV[αMeS]S[αMeF]LEGEAA[αMeK]E[αMeF]IA[αMeF]VV[αMeK]GG-NH2
modifications: N-terminus assumed
SMILES: CC[C@H](C)[C@H](NC(=O)[C@](C)(Cc1ccccc1)NC(=O)[C@H](CCC(=O)O)NC(=O)[C@](C)(CCCCN)NC(=O)[C@H](C)NC(=O)[C@H](C)NC(=O)[C@H](CCC(=O)O)NC(=O)CNC(=O)[C@H](CCC(=O)O)NC(=O)[C@H](CC(C)C)NC(=O)[C@](C)(Cc1ccccc1)NC(=O)[C@H](CO)NC(=O)[C@](C)(CO)NC(=O)[C@@H](NC(=O)[C@H](CC(=O)O)NC(=O)[C@](C)(CO)NC(=O)[C@@H](NC(=O)[C@](C)(Cc1ccccc1)NC(=O)[C@H](CO)NC(=O)CNC(=O)[C@H](CCC(=O)O)NC(=O)C(C)(C)NC(=O)[C@@H](N)Cc1c[nH]cn1)[C@@H](C)O)C(C)C)C(=O)N[C@@H](C)C(=O)N[C@@](C)(Cc1ccccc1)C(=O)N[C@H](C(=O)N[C@H](C(=O)N[C@@](C)(CCCCN)C(=O)NCC(=O)NCC(N)=O)C(C)C)C(C)C
B4: SEQ ID NO 17 (peptide)
peptide: H[Aib]EGS[αMeF]TSDV[αMeS]S[αMeF]LEGEAA[αMeK]E[αMeF]IA[αMeF]VV[αMeK]GG-NH2
modifications: N-terminus assumed
SMILES: CC[C@H](C)[C@H](NC(=O)[C@](C)(Cc1ccccc1)NC(=O)[C@H](CCC(=O)O)NC(=O)[C@](C)(CCCCN)NC(=O)[C@H](C)NC(=O)[C@H](C)NC(=O)[C@H](CCC(=O)O)NC(=O)CNC(=O)[C@H](CCC(=O)O)NC(=O)[C@H](CC(C)C)NC(=O)[C@](C)(Cc1ccccc1)NC(=O)[C@H](CO)NC(=O)[C@](C)(CO)NC(=O)[C@@H](NC(=O)[C@H](CC(=O)O)NC(=O)[C@H](CO)NC(=O)[C@@H](NC(=O)[C@](C)(Cc1ccccc1)NC(=O)[C@H](CO)NC(=O)CNC(=O)[C@H](CCC(=O)O)NC(=O)C(C)(C)NC(=O)[C@@H](N)Cc1c[nH]cn1)[C@@H](C)O)C(C)C)C(=O)N[C@@H](C)C(=O)N[C@@](C)(Cc1ccccc1)C(=O)N[C@H](C(=O)N[C@H](C(=O)N[C@@](C)(CCCCN)C(=O)NCC(=O)NCC(N)=O)C(C)C)C(C)C

target: T1, glucose-dependent insulinotropic …; test: cell-based or functional assay

cAMP Primary assay EC50 GIP-R [nM]	cAMP Primary assay EC50 GIP-R (2nd) [nM]	Binder
27	27	B1
26	26	H[Aib]EGS[αMeF]TSDV[αMeS]S[αMeF]LEGEAAK([PEG2′-PEG2′-Dodecanoyl(12-OPh(4-COOH))])E[αMeF]IA[αMeF]VV[αMeK]GG-NH2 [SEQ ID NO 144]
26	26	B2
25	25	H[Aib]EGS[αMeF]TSDV[αMeS]S[αMeF]LEGEAAK([PEG2′-PEG2′-PEG2′-Dodecanoyl(12-OPh(4-COOH))])E[αMeF]IA[αMeF]VV[αMeK]GG-NH2 [SEQ ID NO 145]
27	27	H[Aib]EGS[αMeF]TSDV[αMeS]S[αMeF]LEGEAAK([PEG2′-Dodecanoyl(12-OPh(4-COOH))])E[αMeF]IA[αMeF]VV[αMeK]GG-NH2 [SEQ ID NO 143]

target: glucagon receptor (GCGR) (human, UniProt P47871 26-477); test: cell-based or functional assay
Sequence (P47871 26-477): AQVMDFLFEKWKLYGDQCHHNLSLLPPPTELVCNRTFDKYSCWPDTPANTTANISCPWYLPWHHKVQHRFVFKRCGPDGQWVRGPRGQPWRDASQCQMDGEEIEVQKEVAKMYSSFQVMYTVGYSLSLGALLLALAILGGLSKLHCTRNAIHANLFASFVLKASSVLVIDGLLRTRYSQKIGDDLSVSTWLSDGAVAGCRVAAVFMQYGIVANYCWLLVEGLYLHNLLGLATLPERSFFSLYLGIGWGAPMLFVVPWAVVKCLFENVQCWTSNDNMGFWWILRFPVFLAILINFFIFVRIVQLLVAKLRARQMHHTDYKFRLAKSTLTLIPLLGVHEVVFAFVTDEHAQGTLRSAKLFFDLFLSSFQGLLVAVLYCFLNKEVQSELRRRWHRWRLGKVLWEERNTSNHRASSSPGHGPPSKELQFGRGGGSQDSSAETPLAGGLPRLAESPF

cAMP Primary assay EC50 Gluc-R [nM]	cAMP Primary assay EC50 Gluc-R (2nd) [nM]	Binder
27	27	B1
26	26	H[Aib]EGS[αMeF]TSDV[αMeS]S[αMeF]LEGEAAK([PEG2′-PEG2′-Dodecanoyl(12-OPh(4-COOH))])E[αMeF]IA[αMeF]VV[αMeK]GG-NH2 [SEQ ID NO 144]
26	26	B2
25	25	H[Aib]EGS[αMeF]TSDV[αMeS]S[αMeF]LEGEAAK([PEG2′-PEG2′-PEG2′-Dodecanoyl(12-OPh(4-COOH))])E[αMeF]IA[αMeF]VV[αMeK]GG-NH2 [SEQ ID NO 145]
27	27	H[Aib]EGS[αMeF]TSDV[αMeS]S[αMeF]LEGEAAK([PEG2′-Dodecanoyl(12-OPh(4-COOH))])E[αMeF]IA[αMeF]VV[αMeK]GG-NH2 [SEQ ID NO 143]

target: GLP-1 receptor (human, UniProt P43220 24-463); test: cell-based or functional assay

Primary assay EC50 (cAMP), Mean pM GLP-1R [pM]	Primary assay EC50 (cAMP), n1 [nM]	Primary assay EC50 (cAMP), n2 [nM]	Binder
118	0.12	0.12	HXEGTFTSDVXSYLEGQAAKEFIAWLVKGR (Aib 2; Aib 11; C-terminal amide) [SEQ ID NO 22]
100	0.064	0.14	H[Aib]EGS[αMeF]TSDV[αMeS]S[αMeF]LEGEAAK([PEG2′-PEG2′-γGlu-Stearoyl])E[αMeF]IA[αMeF]VV[αMeK]GG-NH2 [SEQ ID NO 3]
4940	4.1	5.8	B3
13400	15	12	HXEGTFTXDVSSYLEGQAAKEFIAWLVKGR (Aib 2; Aib 8; C-terminal amide) [SEQ ID NO 20]
0.2	0.00025	0.00024	B4

target: glucagon receptor (human, UniProt P47871 26-477); test: cell-based or functional assay
Sequence (P47871 26-477): as the sequence (P47871 26-477) above

Primary assay EC50 (cAMP), n1 [nM]	Primary assay EC50 (cAMP), n2 [nM]	Binder
390	240	HXEGTFTSDVXSYLEGQAAKEFIAWLVKGR (Aib 2; Aib 11; C-terminal amide) [SEQ ID NO 22]
25	25	H[Aib]EGS[αMeF]TSDV[αMeS]S[αMeF]LEGEAAK([PEG2′-PEG2′-γGlu-Stearoyl])E[αMeF]IA[αMeF]VV[αMeK]GG-NH2 [SEQ ID NO 3]
100	100	B3
290	290	HXEGTFTXDVSSYLEGQAAKEFIAWLVKGR (Aib 2; Aib 8; C-terminal amide) [SEQ ID NO 20]
340	340	HXEGTFTSDVSSYLEGQAAKEFIAWLVKGR (Aib 2; α-MeSer 11; C-terminal amide) [SEQ ID NO 21]
31	31	B4
540	540	HXEGTFTSDVSSYLEGQAAKEFIAWLVKGR (Aib 2; α-MeSer 8; α-MeSer 11; C-terminal amide) [SEQ ID NO 23]
130	130	HXEGTFTSDVSSYLEGQAAKEFIAWLVKGR (Aib 2; α-MeSer 8; C-terminal amide) [SEQ ID NO 19]

target: GLP-1 receptor (GLP-1R) (human, UniProt P43220 24-463); test: cell-based or functional assay

cAMP Mean pM GLP-1R [pM]	cAMP Primary assay EC50 GLP-1R n1 [nM]	cAMP Primary assay EC50 GLP-1R n2 [nM]	Binder
6.9	0.0087	0.005	B1
12.6	0.016	0.0096	H[Aib]EGS[αMeF]TSDV[αMeS]S[αMeF]LEGEAAK([PEG2′-PEG2′-Dodecanoyl(12-OPh(4-COOH))])E[αMeF]IA[αMeF]VV[αMeK]GG-NH2 [SEQ ID NO 144]
10.1	0.012	0.0079	B2
21	0.027	0.015	H[Aib]EGS[αMeF]TSDV[αMeS]S[αMeF]LEGEAAK([PEG2′-PEG2′-PEG2′-Dodecanoyl(12-OPh(4-COOH))])E[αMeF]IA[αMeF]VV[αMeK]GG-NH2 [SEQ ID NO 145]
8.6	0.012	0.0052	H[Aib]EGS[αMeF]TSDV[αMeS]S[αMeF]LEGEAAK([PEG2′-Dodecanoyl(12-OPh(4-COOH))])E[αMeF]IA[αMeF]VV[αMeK]GG-NH2 [SEQ ID NO 143]

target: T2, glucose-dependent insulinotropic …; test: cell-based or functional assay

Primary assay EC50 (cAMP), n1 [nM]	Primary assay EC50 (cAMP), n2 [nM]	Binder
480	480	HXEGTFTSDVXSYLEGQAAKEFIAWLVKGR (Aib 2; Aib 11; C-terminal amide) [SEQ ID NO 22]
25	25	H[Aib]EGS[αMeF]TSDV[αMeS]S[αMeF]LEGEAAK([PEG2′-PEG2′-γGlu-Stearoyl])E[αMeF]IA[αMeF]VV[αMeK]GG-NH2 [SEQ ID NO 3]
100	100	B3
290	290	HXEGTFTXDVSSYLEGQAAKEFIAWLVKGR (Aib 2; Aib 8; C-terminal amide) [SEQ ID NO 20]
340	340	HXEGTFTSDVSSYLEGQAAKEFIAWLVKGR (Aib 2; α-MeSer 11; C-terminal amide) [SEQ ID NO 21]
31	31	B4
540	540	HXEGTFTSDVSSYLEGQAAKEFIAWLVKGR (Aib 2; α-MeSer 8; α-MeSer 11; C-terminal amide) [SEQ ID NO 23]
130	130	HXEGTFTSDVSSYLEGQAAKEFIAWLVKGR (Aib 2; α-MeSer 8; C-terminal amide) [SEQ ID NO 19]
